{
  "source": "patent US7070973B2",
  "about": "“Butyrylcholinesterase variants and methods of use” (priority 2000, dated 2006)",
  "key": {"[1]": {"assay": "Isotope tracer cocaine hydrolysis assay, Lineweaver-Burk plot", "format": "biochemical", "conditions": "2 hour incubation at 37° C., x intercept of double-reciprocal plot", "excerpt": "(§1) At the conclusion of the isotope tracer assay, an aliquot of the reaction mix is acidified in order to take advantage of the solubility difference between the product and the substrate at pH 3.0."}, "[2]": {"conditions": "Gatley 1991; Xie et al. 1999; read-out: Km for cocaine hydrolysis, previously published values; cited from earlier work"}, "[3]": {"system": "cocaine toxicity", "conditions": "infusion of cocaine at 1 mg/kg/min, catecholamine levels standardized; cited from earlier work"}, "[4]": {"assay": "Spectrophotometric (240 nm) cocaine binding and hydrolysis assay with purified butyrylcholinesterase variants", "format": "biochemical", "experimental": "[…]. Pharmacol. 41:1249–1254 (1991). Km values were determined in 0.1M potassium phosphate pH 7.0 at 30° C. for (−)-cocaine. Vmax values and Km values were calculated using Sigma Plot for Macintosh (Jandel Scientific, San Rafael, Calif.).\nOnce Vmax values and Km values were calculated, the number of active sites in each butyrylcholinesterase preparation was determined. The titration of active sites was performed with chlorpyrifos oxon (MET-674B, Chem Service, West Chester, Pa.), an inhibitor of butyrylcholinesterase. One molecule of chlorpyrifos oxon binds and inhibits one molecule of butyrylcholinesterase, which allows for calculation of the number of active sites. Based on the number of active sites, the kcat value for each variant was calculated (Table 3). […]."}, "[5]": {"conditions": "Xie et al. 1999; cited from earlier work"}, "[6]": {"assay": "Microtiter [3H]-cocaine isotope tracer hydrolysis assay with immobilized butyrylcholinesterase variants", "format": "biochemical", "excerpt": "as §1\nThe supernatants isolated from each of the butyrylcholinesterase variant library clones contains variable butyrylcholinesterase enzyme concentrations.\nAt least three approaches are used to either increase the assay sensitivity or the assay signal."}, "[7]": {"conditions": "stored at 4° C., after 18 months (Lynch et al.); cited from earlier work"}},
  "note": "Values joined by “and” are separate entries in the source; they are usually repeats but may differ in a detail not shown here. Equal values may be shown once. Read-outs that look alike come from different tables or passages of the source.",
  "data": [
    {"molecule": "horse butyrylcholinesterase", "values": [
      {"measurement": "Km", "setting": "[1]", "value": "~37.6", "unit": "µM"},
      {"measurement": "Km", "setting": "[2]", "value": "38 µM and 45 µM"}
    ]},
    {"molecule": "COC(=O)[C@H]1[C@@H](OC(=O)c2ccccc2)C[C@@H]2CC[C@H]1N2C", "note": "[cocaine]", "values": [
      {"measurement": "LD90", "setting": "[3]", "value": 16, "unit": "mg/kg"}
    ]},
    {"molecule": "A328Y (protein, UniProt P06276 29-602, looked up, variant A328Y) Cholinesterase: EDDIIIATKNGKVRGMNLTVFGGTVTAFLGIPYAQPPLGRLRFKKPQSLTKWSDIWNATKYANSCCQNIDQSFPGFHGSEMWNPNTDLSEDCLYLNVWIPAPKPKNATVLIWIYGGGFQTGTSSLHVYDGKFLARVERVIVVSMNYRVGALGFLALPGNPEAPGNMGLFDQQLALQWVQKNIAAFGGNPKSVTLFGESAGAASVSLHLLSPGSHSLFTRAILQSGSFNAPWAVTSLYEARNRTLNLAKLTGCSRENETEIIKCLRNKDPQEILLNEAFVVPYGTPLSVNFGPTVDGDFLTDMPDILLELGQFKKTQILVGVNKDEGTYFLVYGAPGFSKDNNSIITRKEFQEGLKIFFPGVSEFGKESILFHYTDWVDDQRPENYREALGDVVGDYNFICPALEFTKKFSEWGNNAFFYYFEHRSSKLPWPEWMGVMHGYEIEFVFGLPLERRDNYTKAEEILSRSIVKRWANFAKYGNPNETQNNSTSWPVFKSTEQKYLTLNTESTRIMTKLRAQQCRFWTSFFPKVLEMTGNIDEAEWEWKAGFHRWNNYMMDWKNQFNDYTSKKESCVGL", "values": [
      {"measurement": "Km", "setting": "[4]; (−)-cocaine, 0.1M potassium phosphate pH 7.0 at 30° C.", "value": 9, "unit": "µM"},
      {"measurement": "kcat (hydrolysis rate)", "setting": "[4]; (−)-cocaine, active sites titrated with chlorpyrifos oxon", "value": 0.17, "unit": "s⁻¹"},
      {"measurement": "Hydrolyzes cocaine faster than wild-type", "setting": "[4]; compared to wild-type butyrylcholinesterase", "value": "Hydrolyzes cocaine 4 times faster than wild-type"},
      {"measurement": "increase in cocaine hydrolysis activity compared to human butyrylcholinesterase", "setting": "[5]", "value": "four"}
    ]},
    {"molecule": "P285S (protein, Human Butyrylcholinesterase variant) EDDIIIATKNGKVRGMNLTVFGGTVTAFLGIPYAQPPLGRLRFKKPQSLTKWSDIWNATKYANSCCQNIDQSFPGFHGSEMWNPNTDLSEDCLYLNVWIPAPKPKNATVLIWIYGGGFQTGTSSLHVYDGKFLARVERVIVVSMNYRVGALGFLALPGNPEAPGNMGLFDQQLALQWVQKNIAAFGGNPKSVTLFGESAGAASVSLHLLSPGSHSLFTRAILQSGSFNAPWAVTSLYEARNRTLNLAKLTGCSRENETEIIKCLRNKDPQEILLNEAFVVPYGTSLSVNFGPTVDGDFLTDMPDILLELGQFKKTQILVGVNKDEGTAFLVYGAPGFSKDNNSIITRKEFQEGLKIFFPGVSEFGKESILFHYTDWVDDQRPENYREALGDVVGDYNFICPALEFTKKFSEWGNNAFFYYFEHRSSKLPWPEWMGVMHGYEIEFVFGLPLERRDNYTKAEEILSRSIVKRWANFAKYGNPNETQNNSTSWPVFKSTEQKYLTLNTESTRIMTKLRAQQCRFWTSFFPKVLEMTGNIDEAEWEWKAGFHRWNNYMMDWKNQFNDYTSKKESCVGL", "values": [
      {"measurement": "increase in cocaine hydrolysis activity compared to human butyrylcholinesterase", "setting": "[6]; region 5 library variants, Examples II through VI", "value": "approximately three"},
      {"measurement": "enhanced cocaine hydrolase activity (library screen)", "setting": "[6]; region five library, hydrolysis of [3H]-cocaine", "value": "enhanced cocaine hydrolase activity"}
    ]},
    {"molecule": "butyrylcholinesterase (protein, listed as Homo sapiens) EDDIIIATKNGKVRGMNLTVFGGTVTAFLGIPYAQPPLGRLRFKKPQSLTKWSDIWNATKYANSCCQNIDQSFPGFHGSEMWNPNTDLSEDCLYLNVWIPAPKPKNATVLIWIYGGGFQTGTSSLHVYDGKFLARVERVIVVSMNYRVGALGFLALPGNPEAPGNMGLFDQQLALQWVQKNIAAFGGNPKSVTLFGESAGAASVSLHLLSPGSHSLFTRAILQSGSFNAPWAVTSLYEARNRTLNLAKLTGCSRENETEIIKCLRNKDPQEILLNEAFVVPYGTPLSVNFGPTVDGDFLTDMPDILLELGQFKKTQILVGVNKDEGTAFLVYGAPGFSKDNNSIITRKEFQEGLKIFFPGVSEFGKESILFHYTDWVDDQRPENYREALGDVVGDYNFICPALEFTKKFSEWGNNAFFYYFEHRSSKLPWPEWMGVMHGYEIEFVFGLPLERRDNYTKAEEILSRSIVKRWANFAKYGNPNETQNNSTSWPVFKSTEQKYLTLNTESTRIMTKLRAQQCRFWTSFFPKVLEMTGNIDEAEWEWKAGFHRWNNYMMDWKNQFNDYTSKKESCVGL", "values": [
      {"measurement": "original activity retained", "setting": "[7]", "value": "over 90%"}
    ]}
  ]
}
